# Test results taken from the nanobody polyreactivity screen of Harvey et al. (2022).
# Experiment: yeast display, Sf9 membrane polyspecificity reagent, FACS + sequencing; frameworks hold sequencing errors
# Summary of the method: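 A synthetic nanobody library was expressed on Saccharomyces cerevisiae BJ5465 by galactose induction for 36–48 hours. The library was stained for 1 hour at 4 °C with 10% biotinylated, detergent-solubilized Sf9 membrane reagent and enriched with streptavidin microbeads before FACS. Low and high (top ~1%) gates were set on anti-HA fluorescence for expression and streptavidin fluorescence for reagent binding, and each polyreactivity label reflects the gate of origin.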
row,Sequence,polyreactivity (PSR sort gate)
1,QVQLVESGGGLVHAGGSLRLSCAASGRTQPYNAMGWYRQAPGKERELVAAISKRGSSTYYADSVKGRFTISRDNAKNTVYLQMNSLKPEDTAVYYCATPGPAVHGTRGEYDYWGQGTQVTVSS,high polyreactivity
2,QVQLVESGGGLVHAGGSLRLSCAASGSIFGANVMGWYRQAPGKERELVAAITRSGTRTYYADSVKGRFTISRDNAKNTVYLQMNSLKPEDTAVYYCAAVLRLSTLTTDFGYWGQGTQVTVSS,high polyreactivity
3,QVQLVESGGGLVHAGGSLRLSCAASGSIFGFNAMGWYRPAPGKERELVAAISSGSTYYADSVKGRYTISRDNAKTTVYLQMNSLKPEDTAVYYCAATTGYSWYGYWGQGTQVTVSS,low polyreactivity
4,QVQLVESGGGLVHAGGSLRLSCAASGSIFQGYAMGRYRQAPGKERDLVAAITASGGSTYYADSVKGRFTISRDNAKNTVYLQMNSLKPEDTAVYYCATDSYWRQDLYRYEYWGQGTQVTVSA,high polyreactivity
5,QVQLVESGGGLVHAGGSLRLSCAASGSIFTFYTMGWYRQAPGKERELVAAINWSGSRTYYADSVKGRFTISRDNAKNTVYLQMNSLKPEDTAVYYCAAYYYTGPTTVESDYWGQGTQVTVSS,high polyreactivity
6,QVQLVESGGGLVHAGGSLRLSCAASGSIFTIYAMGWYRQAPGKERELVAAISDRGTRTYYADSVKGRFTISRDNAKNTVYLQMNSLKPEDTAVYYCATDALYTYGYDYWGQGTQVTVSS,low polyreactivity
7,QVQLVESGGGLVHAGGSLRLSCAASGSIFTKYVMGWYRQAPGKERELVAAITYSGGNTYYADSVKGRFTISRDNAKNTVYFQMNSLKPEDTAVYYCAAKSSAHRGGYWGQGTQVTVSS,high polyreactivity
8,QVQLVESGGGLVHAGGSLRLSCAASGSIFWYYTMGSYRQAPGKERELVATIRWRSGSTYYADSVKGRYTISRDNAKNTVYLQMNTQKPEDTAVYYCAADLYSAVYFSRWSDYWGQGTQVTVSS,high polyreactivity
9,QVQLVESGGGLVHAGGSLRLSCAASGSIFYSNVMGWYRQAPGKERELVAAITRGGGTNYADSVKGRFTISRDNAKNTVYLQMNSLKPEDTAVYYCNRDPQKYRWIPRYDYWGQGTQVTVSS,low polyreactivity
10,QVQLVESGGGLVHAGGSLRLSCAASGSTFGANAMGWYRQAPGKEREFVAAISGSGTTTYYADSVKGRFTISRDNAKNSVYLQMNSLKPEDTAVYYCAKTRKGHWLEYWGQGTQVTVSS,low polyreactivity
11,QVQLVESGGGLVHAGGSLRLSCAASGSTFNYYAMGWYRQAPGKERELVAAIDWSGGSTYYADSVKGRFTISRDNAKNTVYLQMNSLKPEDTAVYYCAARTYDYSYRSYDYWGQGTQVTVSS,low polyreactivity
12,QVQLVESGGGLVHAGGSLRLSCAASGSTLAGYAMGWYRQAPGKERELVAAIDWTGGSTTYSDSVKGRFTISRDNAKNTVYLQMNSLKPEDTAVYFCHVDLGVNGDYWGQGTQVTVSS,low polyreactivity
13,QVQLVESGGGLVHAGGSLRLSCAASRSTFALNAMGWYRPAPGKERELVAAISRRGGSTYYADSVKGRFTISRDNAKNSVYLQMNSLKPEDTAVYYCAARYKRFTRFDYWGQGTQVTVSS,high polyreactivity
14,QVQLVESGGGLVHAGGSLRLSCAPSGSIFTPYAMGWYRQAPAKDRELVADNTYRGGSTYYADSVKGRFTISRDNAKNSVYLQINSLKAEDSAVYYCNADVFTDYRHTRDDYWGQGTQVTVSS,low polyreactivity
15,QVQLVESGGGLVHAGGSLRLSCASSGIIFDYYAMAWYRQAPGKERELVASITGTTGSTYYADSVKGRFTISRDNAKINVYLQMNSLKPEDTAVYYCNVDTPYGGLVTMDYWGQGTQVTVSS,low polyreactivity
16,QVQLVESGGGLVHAGGSLRLSCSPSVSIFNTYAMGWYRQAPGKERELVAGITKTGSPTYYADSVKGRFTISRDIAKNTFYLQMNSLKPEDTAVYYCNARIWPRSYRYDYWGQGTQVTVSS,high polyreactivity
17,QVQLVESGGGLVHAGGSLSLSCAASGSIFPGYAMGWYRQAPGKERELVAGITWSDARTYYADSVKGRFTISRDNAKNTVYLQMNSLKPEDTAVYYCAADYYYYERDYWGKGTQVTVSS,low polyreactivity
18,QVQLVESGGGLVHDGGSLRLSCAASGSILWPYAMGLYRQAPGKERELVAAISTGGSTYYADSVKGRFTISRDNANNTVYLQRNSLKPEDTAVYYCAAFVDYSVYFGGGYWGQGTQVTVSS,low polyreactivity
19,QVQLVESGGGLVHPGGSLRLSCAASGIIFGRYTMGWYRQAPGKERELVAAITSSGITYYADSVKGRFTISRDNAKNTVYLQMNSLKPEDTAVYYCNADYSIPGYYWPYDYWGQGTQVTVSS,low polyreactivity
20,QVQLVESGGGLVHPGGSLRLSCAASGSTFGCNAMGWYRQAPGKERELVSAITFSGGTTYYADSVKGRFTISRDNAKNTVYLQMNSLKPEDTAVYYCNAEWWYQYTGPFAPRGEDYLGQGTQVTVSS,low polyreactivity
21,QVQLVESGGGLVKAGCSLRLSCAASGRIFIVNAMGWYRQAPGKERELVAAISGSGGRTYYADSVKGRFTNSRDNAKNTVYLQMNSLKPEVTAVYYCAAVLRTQPRRYDYWGQGTQVTVSS,high polyreactivity

row,Sequence,polyreactivity (PSR sort gate)
1,QVQLVESGGGLVKAGGSLRISCAASGSIFGPNGKGLYRQAPGKERELVSAISWNGGSTYYADSVKGRFTISRDNAKNTVYLQMNSLKPEDTAVYYCNAVQYYEFDYWGHGTQVTVSS,low polyreactivity
2,QVQLVESGGGLVKAGGSLRLSCAASGFIFGYNDMGGYRQAPGKERELVAAITSRGDRTYYADSVKGRFTISRDNAKNTVYLQMNSLKPEDTAVYYCAAESQAYSLYWGQGTQLTVSS,high polyreactivity
3,QVQLVESGGGLVKAGGSLRLSCAASGFNFSSYALGWYRPAPGKERELVAAISYSGGSTYYADSVKGRFTISRDNAKNTVYLQMNSLKPEDTAVYYCNKLRGYGLRYIVSLDYWGQGTQVSVSS,high polyreactivity
4,QVQLVESGGGLVKAGGSLRLSCAASGNIFYINTMGWYRQAPGKERELVAAIDASYGSTYYADSVKGRFTISRDNAKNTVYLQMNSLKPEDTAVYYCATSRGYDSVYYFYTLWYYYWVQGTQVTVSS,low polyreactivity
5,QVQLVESGGGLVKAGGSLRLSCAASGRIFNYYAMGWYRQAPGKERELVAAISSVGSTNYADSVTGRFTISRDNAKNTVYLQMISLKPEDTAVYYCAAPYQHYDVNYDSWGQGTQVTVSS,low polyreactivity
6,QVQLVESGGGLVKAGGSLRLSCAASGRTFLRNAMGWYRQAPGKERELVATITRGGSTYYADSVKGRFTISRDNAKNTVYLQMNSLKPEDTAVYYCAKDITGGFRRPDYGYWGHGTQVTVSS,low polyreactivity
7,QVQLVESGGGLVKAGGSLRLSCAASGRTFRYYDMGWYRQAPGKESELVAAIRTRGASTYYADSVKGRFTISRDNAKNTVYLQMNSLNPEDTAVYYCAKRAHFSSARHVYYIYDYWGQGTQVTVSS,low polyreactivity
8,QVQLVESGGGLVKAGGSLRLSCAASGSIFKGNVMGWYRQAPGKERELVAGINWSSGRTYYADSVKGRFTISRDNAKNTVYLQMNSLNPEDTAVYYCNAPQYFSYSWPYPREYDYWGQGTQVNVSS,high polyreactivity
9,QVQLVESGGGLVKAGGSLRLSCAASGSIGSYAMGCYRQAPGKERELVAAISSRGGSTYYADSVKGRFTISRDNAKNTVYLQMNSLKPEDTAFYYCAADYRGRYYSKYYYWGQGTQVTVSS,high polyreactivity
10,QVQLVESGGGLVKAGGSLRLSCAASGSISAGNAMGWNIHAPGKERELVAAISGSGGSTFYADSVKGRFTISRYNAKNSVYLQINSLKPEDTAVYYCAARGGYRLRYIPYVRYDYWGQGTQVTVSS,high polyreactivity
11,QVQLVESGGGLVKAGGSLRLSCAASGSNFTFYAMGWYRQAPGKVRELDATISLRGGRKYYADSVKGRFTISRDNAKNTVYLQMNSLKPEDTAVYYCNAPAYYGGYRFRGYNYWGQGTQVTVSS,high polyreactivity
12,QVQLVESGGGLVKAGGSLRLSCAASGSTFRKYAMGWYRQAPGKEREFVAAISSSGGRTYYADSVKGRFTISRDNAKNTVYFLMNSLKPEDTAVYYCNSYFRYSNDYWGQGTQVTVSS,high polyreactivity
13,QVQLVESGGGLVKAGGSLRLSCAASGSTFSRYAMGWYRQAPGKEREFVADITFRTSSTNYADSVKGRFTISRDNAKNTVYLQMNSLKPEDPAVYYCATDTQYKSYAHDYWGQGTQVTVSS,low polyreactivity
14,QVQLVESGGGLVKAGGSLRLSCAPSGSSFYYAMGWYRQAPGKERELVAAINSGGSTNYADSVKGRFTISRDNAKNTVYLQMNSLKPEDTAVYYCAADLYGYWWSFDYDYWGQGTQVTVSS,low polyreactivity
15,QVQLVESGGGLVKAGGSLRLSCDASGLTFNANPMGWYRQEPGKESELVAAIDWIGVSTYYADSVKGRFTISRDNAKNTVYLQMNSLKPEDTAVYYCAAEYDYNFGGNDLWYYYWGQGTQVTVSS,high polyreactivity
16,QVQLVESGGGLVKAGGSLRLSFAAYGSNFPRYALGWYRQATGKERELVASITSDGGSTYYADSVKGRFTISRDNAKNTVYLQMNSLKPEDTAVYYCNKVPYRGYRRYGYWGQGTQVTVSS,high polyreactivity
17,QVQLVESGGGLVKAGGSLRLSSAASGRTFKWYAMGWSRQAPGKERELVAVITGRGGSTYYADSVKGRFTISRDNAKNTVYLQMNSLKPEDTAVYSCAARGYSLVASSLYYYWGQGTQVTVSS,high polyreactivity
18,QVQLVESGGGLVKAGGSLRLSSDASGSISKSYAMGWYRQAPGKERELVAVITSGGNTYYADSVKGRFTISRDNAKNTVYLQMNSLKPEDTAVYYCAAKSGRGRTMDYWGQGTQVTVSS,high polyreactivity
19,QVQLVESGGGLVKAGGSLRLTCAASGRIFVNYAMGWYRQAPGKEMELVAAINWSGGRTYYADSVKGRFTISRDNAKNTVYLQMNSLKPEDTAVYYCAAEWEGTYTTVPDEFNYWGQGTQVTVSS,high polyreactivity
20,QVQLVESGGGLVKAGGSLSLSCAASGFIFVNNVMGWYRQAPGKERELVAAISRRGGSTYYADSVKGRFTISRDNAKNTVYLQMNSLKPEDTAVYYCARRGPDFSWKYDYWGQGTQVTVSS,high polyreactivity
